Laboratory results published in US20250027068.

Target: pooled human IgG (human IgG1,2,3 and 4)

Protein	Enzyme activity endpoint: Fab′2 [ng/µL]	Enzyme activity endpoint: Fc [ng/µL]	Enzyme activity endpoint: IgG [ng/µL]	Enzyme activity endpoint: scIgG [ng/µL]
PRT-648 (protein) MQITSVWTKGVTPLTPEQFRYNNEDVIHAPYLAHQGWYDITKAFDGKDNLLCGAATAGNMLHWWFDQNKTEIEAYLSKHPEKQKIIFNNQYLFDLKAAIDTKDSQTNSQLFNYFRDKAFGNLSARQLGVMPDLVLDMFINGYYLNVNKTQSTDVNRPYQKPDKRGGIFDAVFTRGDQTTLLTARHDLKNKGLNDISTIIKQELTEGRALALSHTYANVSISHVINLWGADFNAEGNLEAIYVTDSDANASIGMKKYFVGINAHGHVAISAKKIEGENIGAQVLGLFTLSSGKDIWQKLSLEHHHHHH	182	206	417	619
PRT-680 (protein) MQITSVWTKGVTPLTPEQFRYNNEDVIHAPYLPHQGWYDITKAFDGKDNLLCGAATAGNMLHWWFDQNKTEIEAYLSKHPEKQKIIFNNQELFDLRAAINTKDSQTNSALFNYFRDKAFPNLSARQLGVMPDLVLDMFINGYYLNVFKTQSTDVNRPYQDKDKRGGIFDAVFTRGDQTTLLTARHDLKNKGLNDISTIIKQELTEGKALALSHTYANVSISHVINLWGADFNAEGNLEAIYVTDSDANASIGMKKYYVGINAHGHVAISAKKIEGENIGAQVLGLFTLSSGKDIWQKLSLEHHHHHH	752	451	0	277
PRT-616 (protein) MQITTVWTKGVTPLTPEQFRYNNEDVIHAPYLPHQGWYDITKAFDGKDNLLCGAATAGNMLHWWFDQNKTEIEAYLSKYPEKQKIIFNNQELFDLRAAINTKDSQTNSQLFNYFRDKAFPNLSARQLGVMPDLVLDMFINGYYLNVFKTQSTDVNRPYQDRDKRGGIFDAVFNRGDQTTLLTARHDLKNKGLNDISTIIKQELSSGRALALSHTYANVSISHVINLWGADFNAEGNLEAIYVTDSDANASIGMKKYYVGINAHGHVAISAKKIEGENIGAQVLGLFTLSSGKDIWQKLSLEHHHHHH	943	495	0	0
PRT-656 (protein) MQITSVWTKGVTPLTPEQFRYNNEDVIHAPYLAHQGWYDITKAFDGKDNLLCGAATAGNMLHWWFDQNKTEIEAYLSKHPEKQKIIFNNQELFDLKRAINDKDSQQNSELFNYFRDKAFPNLSARQLGVMPDLVLDMFINGYYLNVFKTQSTDVNRPYQDKDKRGGIFDAVFTRGDQTTLLTARHDLKNKGLNDISTIIKQELTEGRALALSHTYANVSISHVINLWGADFNAEGNLEAIYVTDSDANASIGMKKYFVGINAHGHVAISAKKIEGENIGAQVLGLFTLSSGKDIWQKLSLEHHHHHH	841	540	0	319
PRT-653 (protein) MQITSVWTKGVTPLTPEQFRYNNEDVIHAPYLAHQGWYDITKAFDGKDNLLCGAATAGNMLHWWFDQNKTEIEAYLSKHPEKQKIIFNNQELFDLKAAIDTKDSQTNSQLFNYFRDKAFPNLSARQLGVMPDLVLDMFINGYYLNVFKTQSTDVNRPYQDKDKRGGIFDAVFTRGDQTTLLTARHDLKNKGLNDISTIIKQELTEGRALALSHTYGNVRSSHVINLWGADFNAEGNLEAIYVTDSDANASIGMKKYFVGINAHGHVAISAKKIEGENVGAQVLGLFTLSSGKDIWQKLSLEHHHHHH	1350	0	2350	0
PRT-628 (protein) MQITSVWTKGVTPLTPEQFRYNNEDVIHAPYLAHQGWYDITKAFDGKDNLLCGAATAGNMLHWWFDQNKEEIEAYLKKHPEKQKIIFNNQELFDLKAAIDTKDSQTNSQLFNYFRDKAFPNLSARQLGVMPDLVLDMFINGYYLNVFKTQSTDVNRPYQDKDKRGGIFDAVFTRGDQTTLLTARHDLKNKGLNDISTIIKQELTEGRALALSHTYANVSISHVINLWGADFNAEGNLEAIYVTDSDANASIGMKKYFVGINAHGHVAISAKKIEGENIGAQVLGLFTLSSGQDIWQQLSLEHHHHHH	852	465	0	0
PRT-679 (protein) MQITSVWTKGVTPLTPEQFRYNNEDVIHAPYLAHQGWYDITKTFDGKDNLLCGAATAGNMLHWWFDQNKTEIEAYLSKHPEKQKIIFNNQELFDLKEAINTKDSQTNSQLFNYFRDKAFPNLSARQLGVMPDLVLDMFINGYYLNVFKTQSTDVNRPYQDKDKRGGIFDAVFTRGDQTTLLTARHDLKNKGLNEISTIIKQELTEGKALALSHTYANVSISHVINLWGADFNAEGNLEAIYVTDSDANASIGMKKYFVGINAHGHVAISAKKIEGENIGAQVLGLFTLSSGKDIWQKLSLEHHHHHH	693	327	34	54
PRT-664 (protein) MQITSVWTKGVTPLTPEQFRYNNEDVIHAPYLPHQGWYDITKAFDGKDNLLCGAATAGNMLHWWFDQNKTEIEAYLSKHPEKQKIIFNNQELFDLRAAINTKDSQTNSALFNYFRDKAFPNLSARQLGVMPDLVLDMFINGYYLNVFKTQSTDVNRPYQDKDKRGGIFDAVFTRGDQTTLLTARHDLKNKGLNDISTLIKQELTEGKALALSHTYANVSISHVINLWGADFNAEGNLEAIYVTDSDSDASIGMKKYYVGINASGHVAISAKKIEGENIGAQVLGLFTLSSGKDIWQKLSLEHHHHHH	703	419	0	0
PRT-557 (protein) MANQEIRYSEEDGKTITSVWTKGVTPPTDFQKNEDVYHAPYVANQGWYDITKTFNGKDDLLCGAATAGNMLHWWFDQNKEEIERYLKKHPEKQKINFNGEQMFDVKEAIDTKDSQTDSALFEYFKDKAFPYLSTKHLGVFPDHVIDMFINGYRLSLTNHGPTPVKDGTKDPRGGIFDAVFTRGDQTKLLTERHDFKEKTLNEISDLIKQELQEGKALGLSHTYANVRINHVINLWGADFDSEGNLEAIYVTDSDSNASIGMKKYYVGVNSAGKVAISAKEIEDDNIGAQVLGLFTLSTGKDIWEQTNLEHHHHHH	512	410	0	194
PRT-638 (protein) MQITSVWTKGVTPLTPEQFRYNNEDVIHAPYLAHQGWYDITKLNDTGDGLLCGAATAGNMLHWWFDQNKTEIEAYLSKHPEKQKIIFNNQELFDLKAAIDTKDSQTNSQLFNYFRDKAFPNLSARQKGVMPDLVLDMFINGYYLNVFKTQSTDVNRPYQDKDKRGGIFDAVFTRGDQTTLLTARHDLKNKGLNDISTIIKQELTEGRALALSHTYANVSISHVINLWGADFNAEGNLEAIYVTDSNAGNGIGMKKYFVGINAHGHVAISAKKIEGENIGAQVLGLFTLSSGKDIWQKLSLEHHHHHH	550	10	823	17
PRT-669 (protein) MQITSVWTKGVTPPTPEQFTNNNEDVFHAPYLANQGWYDITKTFNGKDNLLCGAATAGNMLHWWFDQNKEQIEAYLKKHPEKQKIIFNNQEMFDLKKAIDTKDSQTNSALFNYFRDKAFPNLSARQLGVMPDLVLDMFINGYYLNVGKTQSTDVNRPYQTKDKRGGIFDAVFTRGDQTKLLTARHDLKNKGLNEISDLIKQELTEGKALALSHTYANVRINHVINLWGADFNAEGNLIAIYVTDSDSNASIGMKKYFVGVNSAGKVAISAKKIEGDNIGAQVLGLFTLSSGQDIWQKLSLEHHHHHH	808	457	0	0
PRT-676 (protein) MQITSVWTKGVTPPTMDQFTNYNYDVFHAPYKPGQGWYDITKTFDGKDNLLCGAATAGNMLHWWFDQNKEEIENYLKKHPEKQKIIFNNQKMFDLRKAINTKDSQTNSALFNYFKDKAFPNLSARQKGVMPDLVLDMFINGYYLNLGKTQSTDVNREYQTKDSRGGIFDDVFGRGDQTKLLTARHDLYNGGLNDISQLIKQELSSGKALGLSHTYANVRYSHVINLWGADFDEEGNLEAIYVTDSDDDASIGMKKYYVGKNASGKVAISAKKIEGENIGAQVLGLFTLSSGKEIWQKLSLEHHHHHH	107	136	0	118
PRT-570 (protein) MANQEIRYSEATPSHITSVWTKGVTPPEQFIQNEDVLHAPYIANQGWYDITKTFNGKDDLLCGAATAGNMLHWWFDQNKEQIEAYLKKHPEKQKINFNGEQMFDVKEAIDTKDSQTDSALFNYFKDKAFPYLSTKHLGVFPDHVIDMFINGYRLSLTNHGPTPVKEQTKDPRGGIFDAVFTRGDQSKLLTSRHDFKEKTLKEISQLIKQELTEGKALGLSHTYANVRINHVINLWGADFNAEGNLEAIYVTDSDSNASIGMKKYYVGVNSAGKVAISAKEIEGDNIGAQVLGLFTLSTGQDIWQQTNLEHHHHHH	551	126	0	0
PRT-652 (protein) MQITSVWTKGVTPLTPEQFRYNNEDVIHAPYLAHQGWYDITKAFDGKDNLLCGAATAGNMLHWWFDQNKTEIEAYLSKHPEKQKIIFNNQELFDLKAAIDTKDSQTNSQLFNYFRDKAFPNLSARQLGVMPDLVLDMFINGYYLNVFKTQSTDVNRPYQDKDKRGGIFDAVFTRGDQTTLLTARHDLKNKGLNDISTIIKQELTEGRALALSHGTANGGYSHVINLWGADFNAEGNLEAIYVTDSDANASIGMKKYFVGINAHGHVAISAKKIEGENKGAQVLGLFTLSSGKDIWQKLSLEHHHHHH	410	0	789	12
